Test results published in publication PMC11306395, “Structural basis for the interaction between human coronavirus HKU1 spike receptor binding domain and its receptor TMPRSS2” (Cell Discovery, 2024).

B1: HKU1-A (1A) spike S1 receptor-binding domain (domain or fragment)
chain: SGFTVKPVATVHRRIPDLPDCDIDKWLNNFNVPSPLNWERKIFSNCNFNLSTLLRLVHTDSFSCNNFDESKIYGSCFKSIVLDKFAIPNSRRSDLQLGSSGFLQSSNYKIDTTSSSCQLYYSLPAINVTINNYNPSSWNRRYGFNNFNLSSHSVVYSRYCFSVNNTFCPCAKPSFASSCKSHKPPSASCPIGTNYRSCESTTVLDHTDWCRCSCLPDPITAYDPRSCSQKKSLVGVGEHCAGFGVDEEKCGVLDGSYNVSCLCSTDAFLGWSYDTCVSNNRCNIFSNFILNGINSGTTCSNDLLQPNTEVFTDVCVDYDLYGITGQGIFKEVSAVYYNSWQNLLYDSNGNIIGFKDFVTNKTYNIFPCYAG
modifications: N-glycosylated; disulfides C504-C518 and C520-C533. Construct limits are only in the schematic (Fig. 1a), so they are taken from the paper's own deposited entity 8YOY (start and end shown match …)
B2: HKU1-B (1B) spike S1 receptor-binding domain (domain or fragment)
chain: NLPDCDIDNWLNNVSVPSPLNWERRIFSNCNFNLSTLLRLVHVDSFSCNNLDKSKIFGSCFNSITVDKFAIPNRRRDDLQLGSSGFLQSSNYKIDISSSSCQLYYSLPLVNVTINNFNPSSWNRRYGFGSFNLSSYDVVYSDHCFSVNSDFCPCADPSVVNSCAKSKPPSAICPAGTKYRHCDLDTTLYVKNWCRCSCLPDPISTYSPNTCPQKKVVVGIGEHCPGLGINEEKCGTQLNHSSCFCSPDAFLGWSFDSCISNNRCNIFSNFIFNGINSGTTCSNDL
modifications: N-glycosylated; disulfides C504-C518 and C520-C533. Construct limits are only in the schematic (Fig. 1a), so they are taken from the paper's own deposited entity 8YQQ; the assayed construct may …

Molecular target: T1, transmembrane serine protease 2 (TMPRSS2) ectodomain (human, UniProt O15393 106-492)
T1 construct: Transmembrane serine protease 2 (TMPRSS2), ectodomain; also called TMRPSS2; source: purified
Assay: BLI; bio-layer interferometry titrations of RBD-TMPRSS2; which partner was immobilised and the conditions are not told
Settings: both partners purified

T1 sequence (O15393 106-492): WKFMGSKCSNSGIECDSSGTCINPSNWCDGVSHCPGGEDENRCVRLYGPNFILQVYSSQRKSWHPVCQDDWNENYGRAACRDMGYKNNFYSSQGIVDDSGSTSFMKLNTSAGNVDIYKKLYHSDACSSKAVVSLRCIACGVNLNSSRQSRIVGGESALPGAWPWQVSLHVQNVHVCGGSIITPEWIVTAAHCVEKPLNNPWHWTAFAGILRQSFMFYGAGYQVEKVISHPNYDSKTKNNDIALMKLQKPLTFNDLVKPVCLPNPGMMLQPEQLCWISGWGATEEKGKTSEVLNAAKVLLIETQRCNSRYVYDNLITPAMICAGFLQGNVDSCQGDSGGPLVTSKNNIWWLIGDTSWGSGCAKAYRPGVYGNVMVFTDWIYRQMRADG

| Binder | Kd [nM] |
| --- | --- |
| B1 | 323 |
| B2 | 170 |
